Reference: US20260132219A1

Assays:
human HER3 (human) = human HER3 (human) (UniProt Q02297); assay: BLI; presence of human NRG1
human HER3 = human HER3 (UniProt P21860); assay: BLI; absence of human NRG1

Kd (human HER3 (human)): 16.8 nM
Kd (human HER3): < 0.001 nM
Substance: LJM-716
